Test results published in patent US20150056208A1 (VILARA, published 2015).
Where no end group is shown, it is not given here. [ ]: non-standard residue; d: D form. Cit = NC(=O)NCCC[C@H](N)C(=O)O

Key:
Experiment in all cases: SPR, peptide on CAP chip, 1:1 fit
[1] = molecular target: T1, citrullinated human fibrinogen residues 36-52 (cit-fib) (human, also: biotinylated, place not given here)
T1 construct: Biotinylated peptide on streptavidin plates (ELISA) or CAP chip (SPR); also called Fib36-52; cit fibrinogen
T1 peptide: NEEGFFSA[Cit]GHRPLDKK

[2] = molecular target: T2, citrullinated human enolase peptide 1 (CEP-1) (human, cysteine pairing not given here; also: biotinylated form used in SPR, place not given here)
T2 construct: Coated directly on plates in ELISA; biotinylated and captured on a CAP chip in SPR; also called cit a-enolase; citrullinated alpha-enolase peptide 1
T2 peptide: CKIHA[Cit]EIFDS[Cit]GNPTVEC

[3] = molecular target: T3, citrullinated human vimentin residues 60-75 (cit-vim) (human, also: biotinylated, place not given here)
T3 construct: Biotinylated peptide on streptavidin plates (ELISA) or CAP chip (SPR); also called Vim60-75; cit vimentin
T3 peptide: VYAT[Cit]SSAV[Cit]L[Cit]SSVP

B1: antibody A09 (antibody)
chain 1: KSRTEIHSRVCGGHRAQLQGQLALGRVNGYGDSTLEGRVVVNAPTKVDNPNRLQPLPWGLADPHPVVTIIPNGASRDSAGEGQGLRRLHQSW
chain 2: GPLSDLINDDFGGFAWVLLVPGDKSITHNITAACSAGDGDRLSRRPRHGGRLSQHRL
Question: For B1, which Kd [1] is on record?
Answer: The Kd was 160 nM.

Question: What about the koff [1] of the same binder?
Answer: Its koff is 0.0291 s⁻¹.

Question: What about the koff [2] of the same binder?
Answer: Its koff is 0.0429 s⁻¹.

Question: What about the Kd [3] of the same binder?
Answer: The Kd was 180 nM.

Question: And the koff [3]?
Answer: The koff was 0.0433 s⁻¹.
